Data: doi:10.1101/2024.11.26.625568

How the values were obtained:
dynein [1] = target: dynein (UniProt Q14204)
dynein [2] = target: dynein (UniProt Q14204); remark: listed apart in the source
dynein [3] = target: dynein (UniProt Q14204); remark: listed apart in the source

Substance | run frequency of DDN complexes, against wild-type NuMA FL (fold increase) (dynein [3]) | also measured
Full-length NuMA (from UniProt Q14980 1-2115) (natural protein) | – | frequency of processive runs of DDN complexes, against NuMA 1-705 under the same conditions (fold less frequent) (dynein [1]): 10
NuMA 1-1699 (from UniProt Q14980 1-1699) (domain or fragment) | – | run frequency of DDN complexes in single-molecule motility assays, against the shorter NuMA fragments (dynein [2]): 5 fold lower
NuMA FL S1969D (from UniProt Q14980 1-2115) (natural protein) | < 4 | –
NuMA FL T2055D (from UniProt Q14980 1-2115) (natural protein) | < 4 | –
